Measured values from the supplement of paper PMC10065799, “High-throughput profiling of sequence recognition by tyrosine kinases and SH2 domains using bacterial peptide display” (eLife, 2023).

Each sequence was assayed on AncSZ (assay: phosphorylation enrichment, bacterial display (enrichment ratio); higher = better substrate or ligand; peptides without Tyr show the background).
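Also: 11-residue human phosphosite peptides and single-mutation variants displayed on the E. coli surface, counted by deep sequencing, each peptide's frequency after selection divided by its frequency in the unselected input library; frequency after pTyr selection over input frequency; kinase dosed for 20-30% of maximal phosphorylation in three min.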

Sequence | phosphorylation enrichment
ARKCKYFKKHE [NFIX_Y40_R38C] | 0.619
PDGREYIFVDP [PDGFRA_Y572_H570R_YF] | 2.12
LHRHAYPEQQQ [DPPA2_Y127_R131Q] | 0.726
QRMGTYGVRAA [ICAM2_Y260] | 1.26
RGYRVCYTPDS [PTPRF_Y450_Y450C] | 1.32
KIDAKYKKKIK [WDR19_Y1230_E1235K] | 0.553
SRWKLYPRMLR [HAO1_Y50] | 0.81
TNEFEYDELIV [TGM1_Y136_D132N_YF] | 1.61
KLQKKYGPISS [CYP17A1_Y60_Y64S] | 0.381
IQTDGDRAPEA [UHMK1_Y197_Y197D] | 1.08
LECEWYKNGVK [TTN_Y2112_P2107L] | 2.15
CRAVKYLQMVD [AVPR2_Y117_G122D] | 0.71
REGDKYVSHGA [ASS1_Y113_A111D] | 0.938
AVRVFYRKCPH [EPHB2_Y194_R199H] | 1.22
SILAVYSKDNF [PANK2_Y400_YF] | 0.868
SQINLYQDVML [ZNF806_Y33_A28S] | 1.02
GIADDYDKKKP [EIF1_Y54_L59P] | 1.01

Sequence | phosphorylation enrichment
VERRVYAEDPY [PCCA_Y401_C398R] | 0.826
MSSLPYMKVIF [SLC4A11_Y853_M856V] | 0.822
EKLQKYFRKNP [EHHADH_Y682_Q685K_YF] | 0.613
PTTKSYFPHFD [HBA1_Y43_T42S] | 1.13
HNLDFYKQTTN [FGFR3_Y648_K650Q_YF] | 0.948
LGLDEYLDKLK [FMNL2_Y352] | 1.47
IDNKMYDPKMN [ENPP1_Y280] | 0.699
LRGVIYVILRK [PMP22_Y153_S149R] | 2.21
QEGPEYWDGET [HLA-A_Y83_Q86G] | 1.73
YRQNVYIPGSN [PCDHGA1_Y895] | 0.564
DSLASYLDKVR [KRT10_Y160_R156S] | 0.701
NTVDYYDLYGG [PTPN11_Y63_G60V] | 2.56
KKFFSYAWPFF [BRDT_Y291_H288Y_YF] | 1.07
RCFVFYFSFLL [PTEN_Y177_R173C_YF] | 0.59
NGTVTYAIVAG [CDH23_Y1672] | 0.99
LRYDSYWSYCN [SLC20A2_Y433_S434W] | 2.25

Each sequence was assayed against EPHB1 (UniProt P54762) in the same assay as above.
EPHB1, sequence (P54762 whole entry, looked up): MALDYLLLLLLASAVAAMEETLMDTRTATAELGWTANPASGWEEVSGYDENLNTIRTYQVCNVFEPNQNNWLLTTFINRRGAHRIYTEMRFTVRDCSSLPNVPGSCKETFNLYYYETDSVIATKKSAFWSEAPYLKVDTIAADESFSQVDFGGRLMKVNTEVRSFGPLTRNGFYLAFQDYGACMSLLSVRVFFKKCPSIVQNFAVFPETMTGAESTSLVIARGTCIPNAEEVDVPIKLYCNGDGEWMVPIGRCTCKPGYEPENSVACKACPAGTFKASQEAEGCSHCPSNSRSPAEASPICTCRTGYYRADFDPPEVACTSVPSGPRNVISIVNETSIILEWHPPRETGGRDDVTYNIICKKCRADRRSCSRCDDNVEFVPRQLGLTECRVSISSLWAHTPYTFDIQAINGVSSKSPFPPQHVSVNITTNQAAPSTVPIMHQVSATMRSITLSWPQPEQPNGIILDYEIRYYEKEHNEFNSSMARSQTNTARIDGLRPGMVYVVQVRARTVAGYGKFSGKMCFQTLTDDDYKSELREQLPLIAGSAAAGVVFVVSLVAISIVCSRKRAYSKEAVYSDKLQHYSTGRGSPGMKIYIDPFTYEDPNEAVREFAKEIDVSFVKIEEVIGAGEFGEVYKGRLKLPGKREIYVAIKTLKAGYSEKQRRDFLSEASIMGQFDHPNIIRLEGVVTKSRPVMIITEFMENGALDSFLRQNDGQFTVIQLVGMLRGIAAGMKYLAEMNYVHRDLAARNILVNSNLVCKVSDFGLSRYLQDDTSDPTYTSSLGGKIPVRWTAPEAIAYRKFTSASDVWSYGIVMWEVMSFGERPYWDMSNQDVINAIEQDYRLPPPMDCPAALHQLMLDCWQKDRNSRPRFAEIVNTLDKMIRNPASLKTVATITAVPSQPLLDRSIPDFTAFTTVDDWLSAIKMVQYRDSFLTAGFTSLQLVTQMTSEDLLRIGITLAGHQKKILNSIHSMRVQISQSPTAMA

Sequence | phosphorylation enrichment
ARKCKYFKKHE [NFIX_Y40_R38C] | 0.452
PDGREYIFVDP [PDGFRA_Y572_H570R_YF] | 0.62
LHRHAYPEQQQ [DPPA2_Y127_R131Q] | 0.837
QRMGTYGVRAA [ICAM2_Y260] | 0.685
RGYRVCYTPDS [PTPRF_Y450_Y450C] | 0.892
KIDAKYKKKIK [WDR19_Y1230_E1235K] | 0.38
SRWKLYPRMLR [HAO1_Y50] | 0.478
TNEFEYDELIV [TGM1_Y136_D132N_YF] | 0.51
KLQKKYGPISS [CYP17A1_Y60_Y64S] | 0.32
IQTDGDRAPEA [UHMK1_Y197_Y197D] | 0.636
LECEWYKNGVK [TTN_Y2112_P2107L] | 1.36
CRAVKYLQMVD [AVPR2_Y117_G122D] | 0.508
REGDKYVSHGA [ASS1_Y113_A111D] | 0.794
AVRVFYRKCPH [EPHB2_Y194_R199H] | 0.588
SILAVYSKDNF [PANK2_Y400_YF] | 0.58
SQINLYQDVML [ZNF806_Y33_A28S] | 13.2
GIADDYDKKKP [EIF1_Y54_L59P] | 0.425

Sequence | phosphorylation enrichment
VERRVYAEDPY [PCCA_Y401_C398R] | 0.459
MSSLPYMKVIF [SLC4A11_Y853_M856V] | 0.482
EKLQKYFRKNP [EHHADH_Y682_Q685K_YF] | 0.693
PTTKSYFPHFD [HBA1_Y43_T42S] | 0.746
HNLDFYKQTTN [FGFR3_Y648_K650Q_YF] | 0.623
LGLDEYLDKLK [FMNL2_Y352] | 0.716
IDNKMYDPKMN [ENPP1_Y280] | 0.369
LRGVIYVILRK [PMP22_Y153_S149R] | 0.58
QEGPEYWDGET [HLA-A_Y83_Q86G] | 0.739
YRQNVYIPGSN [PCDHGA1_Y895] | 0.421
DSLASYLDKVR [KRT10_Y160_R156S] | 0.491
NTVDYYDLYGG [PTPN11_Y63_G60V] | 4.4
KKFFSYAWPFF [BRDT_Y291_H288Y_YF] | 0.505
RCFVFYFSFLL [PTEN_Y177_R173C_YF] | 0.353
NGTVTYAIVAG [CDH23_Y1672] | 3.07
LRYDSYWSYCN [SLC20A2_Y433_S434W] | 7.63

Each sequence was assayed against EPHB2 (UniProt P29323) in the same assay as above.
EPHB2, sequence (P29323 whole entry, looked up): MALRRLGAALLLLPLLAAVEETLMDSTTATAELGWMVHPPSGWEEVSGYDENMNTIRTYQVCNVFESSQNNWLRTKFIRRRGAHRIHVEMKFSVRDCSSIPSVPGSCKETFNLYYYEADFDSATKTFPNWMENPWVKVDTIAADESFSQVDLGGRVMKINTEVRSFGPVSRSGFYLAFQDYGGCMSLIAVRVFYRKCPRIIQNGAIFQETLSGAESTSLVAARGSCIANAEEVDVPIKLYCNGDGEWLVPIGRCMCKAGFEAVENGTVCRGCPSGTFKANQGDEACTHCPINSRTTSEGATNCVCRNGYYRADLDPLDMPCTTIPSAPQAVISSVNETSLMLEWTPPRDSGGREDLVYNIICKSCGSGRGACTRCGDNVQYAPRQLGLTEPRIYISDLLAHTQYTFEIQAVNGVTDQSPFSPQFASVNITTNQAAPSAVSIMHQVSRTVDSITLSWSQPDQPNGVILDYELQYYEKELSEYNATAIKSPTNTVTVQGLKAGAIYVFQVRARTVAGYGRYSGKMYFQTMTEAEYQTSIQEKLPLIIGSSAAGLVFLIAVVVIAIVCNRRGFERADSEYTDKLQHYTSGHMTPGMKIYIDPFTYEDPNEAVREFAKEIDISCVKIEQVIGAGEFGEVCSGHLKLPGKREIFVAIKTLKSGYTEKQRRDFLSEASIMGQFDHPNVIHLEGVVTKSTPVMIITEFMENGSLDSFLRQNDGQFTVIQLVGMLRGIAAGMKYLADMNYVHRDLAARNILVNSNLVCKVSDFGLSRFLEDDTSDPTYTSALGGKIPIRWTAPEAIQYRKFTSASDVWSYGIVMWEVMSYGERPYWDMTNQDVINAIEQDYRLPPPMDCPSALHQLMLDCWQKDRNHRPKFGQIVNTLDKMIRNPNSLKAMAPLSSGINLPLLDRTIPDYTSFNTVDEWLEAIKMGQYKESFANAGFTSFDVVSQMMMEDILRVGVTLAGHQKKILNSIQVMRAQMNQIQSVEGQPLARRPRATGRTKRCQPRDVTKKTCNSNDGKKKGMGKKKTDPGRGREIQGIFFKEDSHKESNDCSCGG

Sequence | phosphorylation enrichment
ARKCKYFKKHE [NFIX_Y40_R38C] | 0.403
PDGREYIFVDP [PDGFRA_Y572_H570R_YF] | 0.532
LHRHAYPEQQQ [DPPA2_Y127_R131Q] | 0.811
QRMGTYGVRAA [ICAM2_Y260] | 0.657
RGYRVCYTPDS [PTPRF_Y450_Y450C] | 0.909
KIDAKYKKKIK [WDR19_Y1230_E1235K] | 0.319
SRWKLYPRMLR [HAO1_Y50] | 0.442
TNEFEYDELIV [TGM1_Y136_D132N_YF] | 0.424
KLQKKYGPISS [CYP17A1_Y60_Y64S] | 0.317
IQTDGDRAPEA [UHMK1_Y197_Y197D] | 0.702
LECEWYKNGVK [TTN_Y2112_P2107L] | 0.923
CRAVKYLQMVD [AVPR2_Y117_G122D] | 0.456
REGDKYVSHGA [ASS1_Y113_A111D] | 0.622
AVRVFYRKCPH [EPHB2_Y194_R199H] | 0.711
SILAVYSKDNF [PANK2_Y400_YF] | 0.76
SQINLYQDVML [ZNF806_Y33_A28S] | 5.9
GIADDYDKKKP [EIF1_Y54_L59P] | 0.502

Sequence | phosphorylation enrichment
VERRVYAEDPY [PCCA_Y401_C398R] | 0.507
MSSLPYMKVIF [SLC4A11_Y853_M856V] | 0.541
EKLQKYFRKNP [EHHADH_Y682_Q685K_YF] | 0.615
PTTKSYFPHFD [HBA1_Y43_T42S] | 0.442
HNLDFYKQTTN [FGFR3_Y648_K650Q_YF] | 0.494
LGLDEYLDKLK [FMNL2_Y352] | 0.816
IDNKMYDPKMN [ENPP1_Y280] | 0.362
LRGVIYVILRK [PMP22_Y153_S149R] | 0.551
QEGPEYWDGET [HLA-A_Y83_Q86G] | 0.786
YRQNVYIPGSN [PCDHGA1_Y895] | 0.429
DSLASYLDKVR [KRT10_Y160_R156S] | 0.4
NTVDYYDLYGG [PTPN11_Y63_G60V] | 3.7
KKFFSYAWPFF [BRDT_Y291_H288Y_YF] | 0.545
RCFVFYFSFLL [PTEN_Y177_R173C_YF] | 0.434
NGTVTYAIVAG [CDH23_Y1672] | 2.01
LRYDSYWSYCN [SLC20A2_Y433_S434W] | 9.36

These sequences were tested against FGFR1 (UniProt P11362) in the same assay as above.
FGFR1, sequence (P11362 whole entry, looked up): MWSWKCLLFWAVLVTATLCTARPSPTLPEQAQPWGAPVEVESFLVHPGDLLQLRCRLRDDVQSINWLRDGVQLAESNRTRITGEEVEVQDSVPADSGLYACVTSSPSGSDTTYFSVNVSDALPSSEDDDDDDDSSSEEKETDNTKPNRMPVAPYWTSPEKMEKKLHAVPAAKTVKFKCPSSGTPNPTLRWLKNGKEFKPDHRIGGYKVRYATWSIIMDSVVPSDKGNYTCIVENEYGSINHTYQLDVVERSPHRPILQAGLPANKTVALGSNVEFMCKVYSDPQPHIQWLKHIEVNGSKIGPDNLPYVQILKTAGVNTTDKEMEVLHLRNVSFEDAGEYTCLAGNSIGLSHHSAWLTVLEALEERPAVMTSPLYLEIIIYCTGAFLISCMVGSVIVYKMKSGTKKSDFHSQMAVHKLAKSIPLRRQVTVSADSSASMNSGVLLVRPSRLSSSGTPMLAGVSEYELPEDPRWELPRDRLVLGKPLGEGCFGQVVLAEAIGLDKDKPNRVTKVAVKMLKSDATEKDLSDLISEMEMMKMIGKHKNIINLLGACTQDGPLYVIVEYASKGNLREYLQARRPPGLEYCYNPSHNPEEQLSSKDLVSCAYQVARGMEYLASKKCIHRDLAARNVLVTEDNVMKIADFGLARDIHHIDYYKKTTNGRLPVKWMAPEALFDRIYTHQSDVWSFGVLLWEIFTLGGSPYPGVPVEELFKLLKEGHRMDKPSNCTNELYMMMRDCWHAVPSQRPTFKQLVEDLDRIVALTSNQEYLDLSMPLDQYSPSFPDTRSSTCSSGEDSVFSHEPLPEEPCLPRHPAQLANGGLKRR

Sequence | phosphorylation enrichment
ARKCKYFKKHE [NFIX_Y40_R38C] | 0.428
PDGREYIFVDP [PDGFRA_Y572_H570R_YF] | 1.86
LHRHAYPEQQQ [DPPA2_Y127_R131Q] | 1.07
QRMGTYGVRAA [ICAM2_Y260] | 0.754
RGYRVCYTPDS [PTPRF_Y450_Y450C] | 0.784
KIDAKYKKKIK [WDR19_Y1230_E1235K] | 0.376
SRWKLYPRMLR [HAO1_Y50] | 0.394
TNEFEYDELIV [TGM1_Y136_D132N_YF] | 0.658
KLQKKYGPISS [CYP17A1_Y60_Y64S] | 0.338
IQTDGDRAPEA [UHMK1_Y197_Y197D] | 0.602
LECEWYKNGVK [TTN_Y2112_P2107L] | 0.744
CRAVKYLQMVD [AVPR2_Y117_G122D] | 0.427
REGDKYVSHGA [ASS1_Y113_A111D] | 0.731
AVRVFYRKCPH [EPHB2_Y194_R199H] | 0.563
SILAVYSKDNF [PANK2_Y400_YF] | 0.662
SQINLYQDVML [ZNF806_Y33_A28S] | 1.01
GIADDYDKKKP [EIF1_Y54_L59P] | 0.501

Sequence | phosphorylation enrichment
VERRVYAEDPY [PCCA_Y401_C398R] | 0.631
MSSLPYMKVIF [SLC4A11_Y853_M856V] | 0.764
EKLQKYFRKNP [EHHADH_Y682_Q685K_YF] | 0.473
PTTKSYFPHFD [HBA1_Y43_T42S] | 1.38
HNLDFYKQTTN [FGFR3_Y648_K650Q_YF] | 0.581
LGLDEYLDKLK [FMNL2_Y352] | 0.536
IDNKMYDPKMN [ENPP1_Y280] | 0.553
LRGVIYVILRK [PMP22_Y153_S149R] | 0.665
QEGPEYWDGET [HLA-A_Y83_Q86G] | 0.839
YRQNVYIPGSN [PCDHGA1_Y895] | 0.427
DSLASYLDKVR [KRT10_Y160_R156S] | 0.5
NTVDYYDLYGG [PTPN11_Y63_G60V] | 15.3
KKFFSYAWPFF [BRDT_Y291_H288Y_YF] | 0.515
RCFVFYFSFLL [PTEN_Y177_R173C_YF] | 0.506
NGTVTYAIVAG [CDH23_Y1672] | 0.545
LRYDSYWSYCN [SLC20A2_Y433_S434W] | 3.88
